The record followed here is article PMC12582121, “RNA binding of GAPDH controls transcript stability and protein translation in acute myeloid leukemia”.

The target in data set [1] is T1, GAPDH (Homo sapiens, UniProt P04406 1-335). The data set can be described thus: EMSA, possibly a misprint for nM; 10 mM Tris-HCl pH 8.0, 50 mM KCl, 2 mM DTT, 0.5 mM EDTA, 0.1 mg/ml BSA, 0.1 mg/ml heparin, room temperature; FP 30 min with 2 nM RNA; EMSA 20 min plus 10% glycerol and RiboLock, 6% native gel at 4°C; mass photometry without BSA/heparin. The settings on record: protein: recombinant; tags: N-terminal His; chain copies: 4; label: fluorescein (Roche RNA labeling mix, internal); single strand. On the technique in general: A gel shift assay detects complexes by their altered migration in electrophoresis.
T1 sequence (P04406 whole entry): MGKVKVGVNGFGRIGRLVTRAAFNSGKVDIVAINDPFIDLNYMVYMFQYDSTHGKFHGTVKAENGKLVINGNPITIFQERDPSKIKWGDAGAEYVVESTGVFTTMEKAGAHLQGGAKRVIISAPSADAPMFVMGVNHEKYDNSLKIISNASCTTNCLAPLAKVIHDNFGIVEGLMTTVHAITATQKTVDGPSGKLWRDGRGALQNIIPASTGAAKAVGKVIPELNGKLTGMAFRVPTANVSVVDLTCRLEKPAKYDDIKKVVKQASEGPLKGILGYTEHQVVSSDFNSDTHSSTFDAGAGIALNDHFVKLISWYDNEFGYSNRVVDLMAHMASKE

Data set [2] addresses T1, GAPDH. As to the kind of experiment: EMSA; 10 mM Tris-HCl pH 8.0, 50 mM KCl, 2 mM DTT, 0.5 mM EDTA, 0.1 mg/ml BSA, 0.1 mg/ml heparin, room temperature; FP 30 min with 2 nM RNA; EMSA 20 min plus 10% glycerol and RiboLock, 6% native gel at 4°C; mass photometry without BSA/heparin. The following applies: protein: recombinant, tags: N-terminal His, chain copies: 4, single strand.

Data set [3] has as its target T1, GAPDH. As to the kind of experiment: fluorescence polarization; 10 mM Tris-HCl pH 8.0, 50 mM KCl, 2 mM DTT, 0.5 mM EDTA, 0.1 mg/ml BSA, 0.1 mg/ml heparin, room temperature; FP 30 min with 2 nM RNA; EMSA 20 min plus 10% glycerol and RiboLock, 6% native gel at 4°C; mass photometry without BSA/heparin. The following applies: protein: recombinant, tags: N-terminal His, chain copies: 4, single strand.

Usually Kd stands for a measure of binding affinity in units of concentration.

B1: RPL13a 5'UTR (ssRNA)
RNA: GGGCCUCCUUUUCCAAGCGGCUGCCGAAGAUGGCGGAGGUGCAGGUCCUGGUGCUUGAUGGUCGAGGCCAUCUCCUGGGCCGCCUGGCGGCCAUCGUGGCUAAACAG
As for B1, the Kd with GAPDH [1] worked out at 887000 nM.

For the molecule GUGAUUAUUUAUUAUUUAUUUAUUAUUUAUUUAUUUAG (ssRNA) [TNFα-ARE38], the Kd with GAPDH [2] was 217 nM; in the data set with GAPDH [3], 167 nM.

Consider UGGCCAAUGCCCUGGCUCACAAAUACCACUG (ssRNA) [Rβ31], for which the dissociation constant Kd with GAPDH [3] (S17 legend says FITC-labeled RNA) stood at 1310 nM.

B2: GAPDH 5'UTR (ssRNA)
RNA: GGGCUCUCUGCUCCUCCUGUUCGACAGUCAGCCGCAUCUUCUUUUGCGUCGCCAGCCGAGCCACAUCGCUCAGACACC
With B2, the Kd with GAPDH [2] (label: fluorescein (Roche RNA labeling mix, internal)) came out at 400 nM.
